Reference: the MegaScale stability set (Tsuboyama et al. 2023)

B1: EHEE_rd2_0601 (parent)
chain: TYTYKLTDEEASRRAEDEWRNRGYDVRVRNNNGTWEVEVR
B2: 2M8U (parent)
chain: TKAQVIEAFKVFDRDGNGYVTVDYLRKVLNELGDMMPADEIEEMIYEADPQNSGYVQYETFVGMLFL

Variants of: B1
Test: folding stability dG (cDNA display proteolysis); higher = more stable
Settings: PBS, room temperature

Folding stability dG [kcal/mol] of substitutions, site by site:
A15: G -0.371; T 1.43; M 2.13; Q 0.788; P -0.743; S 0.658; F 1.85; W 1.36; V 2.21; Y 1.4; K 1.37; H 1.43; E 0.824; N 0.072; D 0.605; I 2.2; L 2.46; R 0.442
D17: S 1.88; Q 2.08; V 2.08; R 2.1; Y 1.77; M 2.11; F 1.86; H 1.68; A 2.17; T 1.99; I 2.17; W 1.92; L 2.06; N 1.78; E 1.99; G 1.24; K 2.02
Y4: T -0.316; I 1.58; A -0.411; V 0.852; C 1.16; D -0.109; H 0.191; M 1.14; K -0.308; Q 0.276; N -0.767; S -0.488; F 1.94; E 0.419; W 1.12; L 1.36; P -0.228; G -0.985
T3: E 0.117; L 1.46; H 0.873; M 1.18; I 1.92; Q 0.604; G 0.036; V 1.82; K 1.13; R 1.12; A 0.556; C 2.36; Y 1.36; S 0.898; P -0.035; F 1.37; W 1.24; D 0.044; N 0.532
S12: E -0.128; V 2.17; N -0.531; F 1.08; A 3.22; G 1.14; H -0.243; Q 0.072; P -0.764; K 0.553; Y 0.95; R 0.481; T 1.51; W 0.977; D -0.63; C 2.33; L 1.39; M 1.95; I 0.918
E10: F 1.2; G 1.1; L 1.34; D 1.38; Y 1.29; H 1.09; M 1.41; W 1.28; N 1.12; I 1.3; T 1.23; S 1.22; A 1.75; R 1.06; K 1.19; P 1.02; Q 1.41; V 1.27; C 1.88
E16: S 1.47; G 1.4; Y 1.86; N 0.335; V 2; W 1.3; I 1.82; T 1.29; A 2.56; Q 1.46; M 1.68; K 0.777; P -0.034; L 1.54; R 1.19; H 1.08; F 1.73; D -0.24
Y2: I 1.69; G 0.413; P 0.083; E 0.682; V 1.63; T 1.38; F 1.76; W 2.04; D 0.375; M 1.46; H 1.37; K 1.33; A 0.941; N 0.674; R 1.58; L 1.41; Q 1.04; S 0.609
R14: A 1.36; N 1.04; H 1.22; F 1.13; Y 0.942; S 0.898; G 0.487; D 0.704; I 1.35; E 1; W 0.994; L 1.33; P -0.495; K 1.53; Q 1.35; T 0.957; V 1.29; M 1.2
D8: M 0.146; W 0.339; V -0.022; C 1.07; K -0.424; E 0.662; Y 0.298; I 0.306; N 1.47; T 1.74; F 0.427; S 1.9; G 0.808; L 0.261; Q 0.142; R -0.434; H 0.365; A 0.271
E18: C 2.41; K 1.43; A 1.45; F 2.71; I 1.74; D 1.21; G 0.757; H 1.83
T1: N 1.19; I 1.73; F 1.73; Q 1.03; K 1.28; G 1.37; R 1.35; A 1.41; E 0.815; P 1.15; H 1.44; M 1.33; V 1.86; D 0.915; Y 1.81; L 1.37; S 1.62; W 2.65
T7: C 2; P 2.05; H 1.69; K 1.79; E 1.85; N 1.62; Y 2.02; L 1.82; G 1.69; R 1.61; M 1.78; S 1.63; Q 1.86; I 1.62; F 1.91; D 1.81; A 1.94; W 1.64; V 1.63
A11: P -0.502; W 0.697; V 0.486; D 1.12; R 0.546; N 0.709; E 1.5; Q 1.22; H 0.875; G 0.768; Y 0.624; I 0.447; F 0.664; L 0.971; M 1.11; S 1.58; T 1.19; K 0.673
L6: N 0.622; I 1.15; H 1.48; Q 0.88; W 1.14; T 1.8; V 2.08; M 1.97; S 1.23; D 0.391; K -0.09; P -0.21; A 1.4; G 0.912; F 3.77; Y 3.41; E 0.639; R -0.655
K5: I 2.2; Q 1.71; E 1.31; D 0.851; R 1.56; V 1.97; A 1.38; N 1.38; P 0.658; Y 2.64; W 1.83; M 1.72; F 2.34; S 1.58; T 1.95; G 0.688; L 1.84; H 1.74
R13: E 0.263; L 1.08; F 0.619; Y 0.805; S 0.553; C 0.559; M 0.987; D 0.014; K 1.45; W 0.841; A 0.771; Q 0.968; T 0.582; G 0.328; P -0.953; N 0.767; V 0.764; H 0.979; I 0.934
E9: N 0.05; S 0.61; Q 1.07; G 0.631; M 0.936; V 0.885; K 0.834; R 0.802; W 1.26; F 1.29; P 0.822; H 0.807; A 1.12; I 0.934; D 0.289; Y 1.58; L 1.14; T 0.198

Variants of: B2
Test: as above
Settings: PBS, room temperature

Folding stability dG [kcal/mol] of substitutions, site by site:
L67: M 3.46; W 3.08; N 3.67; S 3.6; R 3.81; I 3.3; P 3.9; F 3.22; V 3.28; H 3.62; Y 3.08; G 3.49; Q 3.8; K 3.57; E 3.96; T 3.3
